In general, Kd refers to the constant that tells how readily two partners part at equilibrium. For orientation: EC50 means the midpoint of the concentration-response curve. Usually IC50 stands for the point on the concentration scale where inhibition reaches its midpoint. As usually defined, the koff is the rate constant with which the complex falls apart. By kon is commonly meant a measure of how fast the partners come together.

Assay [1] has as its target T1, recombinant human PD-1-his (Sino biological, #10377-H08H) (human, UniProt Q15116 25-167).
T1 construct: Bought protein; also called Human PD-1-his protein; not shown: his tag
The assay is described as follows: SPR (Biacore) as in Example 2.

The target of assay [2] is T1, recombinant human PD-1-his (Sino …). Put plainly: SPR (Biacore). On the technique in general: In SPR one partner is held on a chip, and binding of the other changes the refractive index at the surface.
The target of assay [3] is T2, cynomolgus monkey PD-1-his protein (Acro biosystems, #PD-1-C5223) (cynomolgus monkey, UniProt B0LAJ3 25-170).
T2 construct: Bought protein; also called Cynomolgus PD-1; Cynomolgus PD1
The assay is described as follows: SPR (Biacore).

The target in assay [4] is T3, biotin-labeled human PD-1 Fc protein (human, biotin-labeled (sites not given)).
T3 construct: also called PD-1-Fc-biotin
The assay is described as follows: binding capture ELISA, biotin PD-1-Fc.

Assay [5] addresses T3, biotin-labeled human PD-1 Fc protein. The assay is described as follows: benchmark blocking ELISA (coated Nivolumab as competitor). As for the experimental part:
(§1) The next day, plates were washed with wash buffer, and blocked with 5% non-fatty milk in PBST for 2 hours at 37° C. […] Plates were finally washed using wash buffer. TMB was added and the reaction was stopped using 1M H_2SO_4, and the absorbance was read at 450 nm. Data were analyzed using Graphpad Prism software and $IC50$ values were reported.
On the technique in general: In an ELISA, binding on a coated surface is turned into a signal by an enzyme label.

The target is the same in assay [6]. Put plainly: binding capture ELISA (goat anti-human IgG Fab capture), biotin PD-1-Fc.
For assay [7], the target named is T4, human PD-1 on PD-1 Effector Cell Line (Genscript, GS-J2/PD-1) (human, UniProt Q15116 25-288). Put plainly: cell-based or functional assay.
Assay [8] deals with T3, biotin-labeled human PD-1 Fc protein. Put plainly: PD1/PDL1 ligand blocking ELISA (coated PD-L1-Fc).
The target of assay [9] is T1, recombinant human PD-1-his (Sino …). Put plainly: SPR (Biacore T200), antibody captured, antigen flowed. The source says:
(§2) Briefly, goat […] (GE healthcare, Cat #BR100839, Human Antibody Capture Kit) was covalently linked to a CM5 chip (carboxy methyl dextran coated chip) via primary amines, using a standard amine coupling kit (GE healthcare, Pittsburgh, PA, USA) provided by Biacore. Unreacted moieties on the biosensor surface were blocked with ethanolamine. […] Then, recombinant human PD-1-his (Sino biological, #10377-H08H) or cynomolgus monkey PD-1-his protein (Acro biosystems, #PD-1-C5223) in HBS EP buffer (provided by Biacore) was flowed onto the chip at a flow rate of 30 μL/min. The antigen-antibody association kinetics was followed for 2 minutes and the dissociation kinetics was followed for 10 minutes. The association and dissociation curves were fit to a 1:1 *Langmuir* binding model using BIA evaluation software.

The target of assay [10] is T2, cynomolgus monkey PD-1-his protein …. The description is as above.
Text: as §2

For assay [11], the target named is T3, biotin-labeled human PD-1 Fc protein. The assay is described as follows: competition ELISA: blocks biotin PD-1-Fc binding to coated Nivolumab (competitor); partial blocking. As for the experimental part: as §1
Assay [12] addresses T4, human PD-1 on PD-1 Effector Cell Line …. Put plainly: cell-based or functional assay. This is another data set of the same source.
In assay [13] the target is T3, biotin-labeled human PD-1 Fc protein. Put plainly: capture ELISA: antibody captured by anti-IgG Fc, biotin PD-1-Fc 60 nM.
For assay [14] the target is unchanged. The assay is described as follows: competition ELISA: blocks biotin PD-1-Fc binding to coated PD-L1-Fc. As for the experimental part: (§3) The next day, plates were washed with wash buffer (PBS+0.05% Tween-20, PBST), and blocked with 5% non-fatty milk in PBST for 2 hours at 37° C. Plates were then washed again using wash buffer.
(§4) After incubation at 37° C. for 40 minutes, plates were washed for 4 times using wash buffer. […] Plates were washed again using wash buffer. Finally, TMB was added and the reaction was stopped using 1M H_2SO_4, and the absorbance was read at 450 nm. Data were analyzed using Graphpad Prism software and $IC50$ values were reported.

The target is the same in assay [15]. Put plainly: PD1/PDL1 ligand blocking ELISA (coated PD-L1-Fc). As for the experimental part: as §3, §4
This is another data set of the same source.

Assay [16] has the same target. The assay is described as follows: benchmark blocking ELISA (coated Nivolumab, self-competition).
For assay [17] the target is unchanged. Put plainly: competition ELISA: blocks biotin PD-1-Fc binding to coated Nivolumab (self-competition).
For assay [18] the target is unchanged. Put plainly: benchmark blocking ELISA (coated Nivolumab, self-competition). The source holds these as a separate data set.
Assay [19] shares this target. The assay is described as follows: capture binding ELISA, biotin PD-1-Fc.

B1: humanized anti-PD-1 antibody huC1E1-V1 (antibody, human IgG1, kappa)
heavy: not shown
light: EIVLTQSPATLSLSPGERATLSCRASKSVDDSGISFMHWFQQKPGQPPRLLIYAASNQGSGVPARFSGSGSGTDFTLTISSLEPEDFAVYFCHQTKEVPWTFGQGTKVEIKRTVAAPSVFIFPPSDEQLKSGTASVVCLLNNFYPREAKVQWKVDNALQSGNSQESVTEQDSKDSTYSLSSTLTLSKADYEKHKVYACEVTHQGLSSPVTKSFNRGEC
notes: Human IgG1/kappa, expressed in 293F cells
On to B1, for which, in assay [1], the Kd is 3.88 nM.

B2: humanized anti-PD-1 antibody huC1E1-V2 (antibody, human IgG1, kappa)
heavy: not shown
light: EIVLTQSPATLSLSPGERATLSCRASKSVDDSGISFMHWFQQKPGQPPRLLIYAASNQGSGVPARFSGSGSGTDFTLTISSLEPEDFAVYFCHQTKEVPWTFGQGTKVEIKRTVAAPSVFIFPPSDEQLKSGTASVVCLLNNFYPREAKVQWKVDNALQSGNSQESVTEQDSKDSTYSLSSTLTLSKADYEKHKVYACEVTHQGLSSPVTKSFNRGEC
notes: as for B1
Regarding B2, the Kd in assay [1] was determined as 2.49 nM.

B3: humanized anti-PD-1 antibody huC1E1-V6 (antibody, human IgG1, kappa, V domains shown)
VH: EVQLVESGGGVVQPGRSLRLSCAASGFTFSSYLMSWVRQAPGKGLEWVATISGGGGDTYFPDSVKGRFTISRDNSKNTLYLQMNSLRAEDTAVYYCVRFGGAGYYWYFDVWGAGTLVTVSS
VL: EIVLTQSPATLSLSPGERATLSCRASKSVDDSGISFMHWFQQKPGQPPRLLIYAASNQGSGVPARFSGSGSGTDFTLTISSLEPEDFAVYYCHQTKEVPWTFGQGTKVEIKR
notes: as for B1
As for B3, the Kd in assay [1] was found to be 3.05 nM.

B4: humanized anti-PD-1 antibody huC1E1-V10 (antibody, human IgG1, kappa)
heavy: not shown
light: EIVLTQSPATLSLSPGERATLSCRASKSVDDSGISFMHWYQQKPGQAPRLLIYAASNQGSGIPARFSGSGSGTDFTLTISSLEPEDFAVYYCHQTKEVPWTFGQGTKVEIKRTVAAPSVFIFPPSDEQLKSGTASVVCLLNNFYPREAKVQWKVDNALQSGNSQESVTEQDSKDSTYSLSSTLTLSKADYEKHKVYACEVTHQGLSSPVTKSFNRGEC
notes: as for B1
Regarding B4, the values for the Kd in assay [2], in assay [3] and in assay [1] were 0.968 nM, 0.892 nM and 0.968 nM, respectively. The 50% effective concentration (EC50) in assay [4] is 0.34 nM; in [6], 0.44 nM. In addition, the results for the IC50 in assay [5] and in [8] were 0.35 nM and 0.88 nM, respectively. For the same molecule, in assay [7], the “Cell-based reporter assay (EC50, nM)” value stood at 11.3 nM.

B5: humanized anti-PD-1 antibody huC1E1-V3 (antibody, human IgG1, kappa, V domains shown)
VH: EVQLVESGGGVVQPGRSLRLSCAASGFTFSSYLMSWVRQAPGKGLEWVATISGGGGDTYFPDSVKGRFTISRDNSKNTLYLQMNSLRAEDTAVYYCVRFGGAGYYWYFDVWGAGTLVTVSS
VL: EIVLTQSPATLSLSPGERATLSCRASKSVDDSGISFMHWYQQKPGQPPRLLIYAASNQGSGVPARFSGSGSGTDFTLTISSLEPEDFAVYFCHQTKEVPWTFGQGTKVEIKR
notes: as for B1
Regarding B5, the equilibrium dissociation constant (Kd) in [1] came to 4.52 nM.

B6: humanized anti-PD-1 antibody huC1E1-V4 (antibody, human IgG1, kappa, V domains shown)
VH: EVQLVESGGGVVQPGRSLRLSCAASGFTFSSYLMSWVRQAPGKGLEWVATISGGGGDTYFPDSVKGRFTISRDNSKNTLYLQMNSLRAEDTAVYYCVRFGGAGYYWYFDVWGAGTLVTVSS
VL: EIVLTQSPATLSLSPGERATLSCRASKSVDDSGISFMHWFQQKPGQAPRLLIYAASNQGSGVPARFSGSGSGTDFTLTISSLEPEDFAVYFCHQTKEVPWTFGQGTKVEIKR
notes: as for B1
Consider B6, for which, in assay [1], the Kd turned out to be 2.95 nM.

B7: humanized anti-PD-1 antibody huC1E1-V5 (antibody, human IgG1, kappa, V domains shown)
VH: EVQLVESGGGVVQPGRSLRLSCAASGFTFSSYLMSWVRQAPGKGLEWVATISGGGGDTYFPDSVKGRFTISRDNSKNTLYLQMNSLRAEDTAVYYCVRFGGAGYYWYFDVWGAGTLVTVSS
VL: EIVLTQSPATLSLSPGERATLSCRASKSVDDSGISFMHWFQQKPGQPPRLLIYAASNQGSGIPARFSGSGSGTDFTLTISSLEPEDFAVYFCHQTKEVPWTFGQGTKVEIKR
notes: as for B1
For the molecule B7, the Kd in assay [1] came to 3.37 nM.

B8: humanized anti-PD-1 antibody huC1E1-V7 (antibody, human IgG1, kappa)
heavy: not shown
light: EIVLTQSPATLSLSPGERATLSCRASKSVDDSGISFMHWYQQKPGQAPRLLIYAASNQGSGIPARFSGSGSGTDFTLTISSLEPEDFAVYYCHQTKEVPWTFGQGTKVEIKRTVAAPSVFIFPPSDEQLKSGTASVVCLLNNFYPREAKVQWKVDNALQSGNSQESVTEQDSKDSTYSLSSTLTLSKADYEKHKVYACEVTHQGLSSPVTKSFNRGEC
notes: as for B1
With B8, the Kd in assay [1] came out at 6.36 nM.

B9: mouse anti-PD-1 monoclonal antibody 2G2 (antibody, mouse IgG1, kappa, V domains shown)
VH: EVQLVESGGDLVKPGGSLKLSCTASGFTFSYYGMSWVRQTPDKRLEWVATISSGSSFTYSPDSVKGRFTISRDNAKNTLYLQMNSLKSEDTAIYYCTRREGIYDASWDYSMDYWGQGTSVTVSS
VL: DVLMTQTPLSLPVSLGDQASISCRSSQSIIRSNGNTYLEWYLQKPGQSPKLLIYKVSNRFSGVPDRFSGSGSGTDFTLKISRVEADDLGLYYCFQGSHVPWTFGGGTKLEIKR
notes: Purified from hybridoma; Constant regions tied only generically to 'mouse antibodies'; also called Clone 2G2
In the case of B9, in assay [9], the Kd came to 2.68 nM, the koff came out at 0.000436 s⁻¹ and the kon was found to be 163000 M⁻¹ s⁻¹. For the same molecule, in [10], the Kd turned out to be 13 nM, the dissociation rate constant (koff) amounted to 0.00183 s⁻¹ and the on-rate constant (kon) stood at 140000 M⁻¹ s⁻¹. In assay [11], this molecule yielded a concentration for half-maximal inhibition (IC50) of 14.4 nM. Further, the “Reporter Activation (EC50, nM) human PD-1 cell (NFAT-luc)/human PD-L1 cell” value in assay [12] is 17.9 nM. The molecule further showed a concentration giving a half-maximal response (EC50) in assay [13] of 0.18 nM. In assay [14], the IC50 was found to be 0.32 nM.

B10: Nivolumab (OPDIVO®) (antibody, V domains shown)
VH: QVQLVESGGGVVQPGRSLRLDCKASGITFSNSGMHWVRQAPGKGLEWVAVIWYDGSKRYYADSVKGRFTISRDNSKNTLFLQMNSLRAEDTAVYYCATNDDYWGQGTLVTVSS
VL: EIVLTQSPATLSLSPGERATLSCRASQSVSSYLAWYQQKPGQAPRLLIYDASNRATGIPARFSGSGSGTDFTLTISSLEPEDFAVYYCQQSSNWPRTFGQGTKVEIK
Turning to B10, the concentration for half-maximal inhibition (IC50) in assay [15] worked out at 0.41 nM; in assay [16], 0.38 nM; in assay [17], 3.79 nM; in assay [18], 0.38 nM; in assay [8], 0.41 nM. Moreover, the figures for the EC50 in assay [4], in assay [19] and in [13] were 0.37 nM, 0.37 nM and 0.21 nM, respectively.

The values are drawn from patent US12037395 (IMMVIRA, dated 2024).
